{"source": "IntAct's records for PubMed 25910212", "parents": {"B1": {"name": "F-box only protein 7 (Homo sapiens), Q9Y3I1 (parent)", "chain": "MRLRVRLLKRTWPLEVPETEPTLGHLRSHLRQSLLCTWGYSSNTRFTITLNYKDPLTGDEETLASYGIVSGDLICLILQDDIPAPNIPSSTDSEHSSLQNNEQPSLATSSNQTSMQDEQPSDSFQGQAAQSGVWNDDSMLGPSQNFEAESIQDNAHMAEGTGFYPSEPMLCSESVEGQVPHSLETLYQSADCSDANDALIVLIHLLMLESGYIPQGTEAKALSMPEKWKLSGVYKLQYMHPLCEGSSATLTCVPLGNLIVVNATLKINNEIRSVKRLQLLPESFICKEKLGENVANIYKDLQKLSRLFKDQLVYPLLAFTRQALNLPDVFGLVVLPLELKLRIFRLLDVRSVLSLSAVCRDLFTASNDPLLWRFLYLRDFRDNTVRVQDTDWKELYRKRHIQRKESPKGRFVMLLPSSTHTIPFYPNPLHPRPFPSSRLPPGIIGGEYDQRPTLPYVGDPISSLIPGPGETPSQFPPLRPRFDPVGPLPGPNPILPGRGGPNDRFPFRPSRGRPTDGRLSFM"}, "B2": {"name": "U4/U6 small nuclear ribonucleoprotein Prp31 (Homo sapiens), Q8WWY3 (parent)", "chain": "MSLADELLADLEEAAEEEEGGSYGEEEEEPAIEDVQEETQLDLSGDSVKTIAKLWDSKMFAEIMMKIEEYISKQAKASEVMGPVEAAPEYRVIVDANNLTVEIENELNIIHKFIRDKYSKRFPELESLVPNALDYIRTVKELGNSLDKCKNNENLQQILTNATIMVVSVTASTTQGQQLSEEELERLEEACDMALELNASKHRIYEYVESRMSFIAPNLSIIIGASTAAKIMGVAGGLTNLSKMPACNIMLLGAQRKTLSGFSSTSVLPHTGYIYHSDIVQSLPPDLRRKAARLVAAKCTLAARVDSFHESTEGKVGYELKDEIERKFDKWQEPPPVKQVKPLPAPLDGQRKKRGGRRYRKMKERLGLTEIRKQANRMSFGEIEEDAYQEDLGFSLGHLGKSGSGRVRQTQVNEATKARISKTLQRTLQKQSVVYGGKSTIRDRSSGTASSVAFTPLQGLEIVNPQAAEKKVAEANQKYFSSMAEFLKVKGEKSGLMST", "partner": "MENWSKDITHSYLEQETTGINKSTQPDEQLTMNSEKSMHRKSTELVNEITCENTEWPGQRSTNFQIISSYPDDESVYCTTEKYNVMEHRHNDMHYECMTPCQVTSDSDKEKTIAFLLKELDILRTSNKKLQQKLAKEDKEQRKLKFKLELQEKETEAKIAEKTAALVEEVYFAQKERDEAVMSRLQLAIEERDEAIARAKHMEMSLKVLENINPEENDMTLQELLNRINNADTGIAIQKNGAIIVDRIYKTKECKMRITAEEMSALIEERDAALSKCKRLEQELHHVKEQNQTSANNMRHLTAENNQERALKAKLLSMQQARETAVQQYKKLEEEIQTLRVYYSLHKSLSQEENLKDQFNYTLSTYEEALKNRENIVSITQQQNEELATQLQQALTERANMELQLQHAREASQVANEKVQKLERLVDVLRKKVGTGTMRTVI"}, "B3": {"name": "Lipopolysaccharide-induced tumor necrosis factor-alpha factor (Homo sapiens), Q99732 (parent)", "chain": "MSVPGPYQAATGPSSAPSAPPSYEETVAVNSYYPTPPAPMPGPTTGLVTGPDGKGMNPPSYYTQPAPIPNNNPITVQTVYVQHPITFLDRPIQMCCPSCNKMIVSQLSYNAGALTWLSCGSLCLLGCIAGCCFIPFCVDALQDVDHYCPNCRALLGTYKRL"}, "B4": {"name": "Progranulin (Homo sapiens), P28799 (parent)", "chain": "MWTLVSWVALTAGLVAGTRCPDGQFCPVACCLDPGGASYSCCRPLLDKWPTTLSRHLGGPCQVDAHCSAGHSCIFTVSGTSSCCPFPEAVACGDGHHCCPRGFHCSADGRSCFQRSGNNSVGAIQCPDSQFECPDFSTCCVMVDGSWGCCPMPQASCCEDRVHCCPHGAFCDLVHTRCITPTGTHPLAKKLPAQRTNRAVALSSSVMCPDARSRCPDGSTCCELPSGKYGCCPMPNATCCSDHLHCCPQDTVCDLIQSKCLSKENATTDLLTKLPAHTVGDVKCDMEVSCPDGYTCCRLQSGAWGCCPFTQAVCCEDHIHCCPAGFTCDTQKGTCEQGPHQVPWMEKAPAHLSLPDPQALKRDVPCDNVSSCPSSDTCCQLTSGEWGCCPIPEAVCCSDHQHCCPQGYTCVAEGQCQRGSEIVAGLEKMPARRASLSHPRDIGCDQHTSCPVGQTCCPSLGGSWACCQLPHAVCCEDRQHCCPAGYTCNVKARSCEKEVVSAQPATFLARSPHVGVKDVECGEGHFCHDNQTCCRDNRQGWACCPYRQGVCCADRRHCCPAGFRCAARGTKCLRREAPRWDAPLRDPALRQLL", "partner": "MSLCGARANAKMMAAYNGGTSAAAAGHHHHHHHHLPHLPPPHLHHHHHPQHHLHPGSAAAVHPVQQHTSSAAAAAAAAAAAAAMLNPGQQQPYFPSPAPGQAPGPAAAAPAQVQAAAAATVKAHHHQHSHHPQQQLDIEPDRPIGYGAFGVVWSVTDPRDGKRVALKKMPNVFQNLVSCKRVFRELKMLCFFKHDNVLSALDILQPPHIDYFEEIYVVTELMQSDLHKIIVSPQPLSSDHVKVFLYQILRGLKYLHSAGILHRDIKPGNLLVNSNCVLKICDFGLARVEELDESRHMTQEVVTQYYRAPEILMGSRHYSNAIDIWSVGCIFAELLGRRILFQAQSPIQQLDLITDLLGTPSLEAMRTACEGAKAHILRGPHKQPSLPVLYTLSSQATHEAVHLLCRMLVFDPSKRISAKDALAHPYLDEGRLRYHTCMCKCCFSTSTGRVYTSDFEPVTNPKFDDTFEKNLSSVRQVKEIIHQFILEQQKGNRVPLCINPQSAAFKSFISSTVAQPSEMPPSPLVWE"}}}
{"variants_of": "B1", "details": "with psa3_human PSMA3, P25788"}
{"variant": "T22M", "effect of a mutation on the interaction": "disrupting interaction strength"}
{"variants_of": "B2", "details": "with mipo1_human MIPOL1, Q8TD10"}
{"variant": "L107V", "effect of a mutation on the interaction": "with no effect"}
{"variants_of": "B3", "details": "with UBQLN1, Q9UMX0-2"}
{"variant": "A111G", "effect of a mutation on the interaction": "disrupting interaction strength"}
{"variant": "G112S", "effect of a mutation on the interaction": "disrupting interaction strength"}
{"variant": "I92V", "effect of a mutation on the interaction": "with no effect"}
{"variants_of": "B3", "details": "with stam2_human STAM2, O75886"}
{"variant": "A111G", "effect of a mutation on the interaction": "disrupting interaction strength"}
{"variant": "G112S", "effect of a mutation on the interaction": "disrupting interaction strength"}
{"variant": "I92V", "effect of a mutation on the interaction": "with no effect"}
{"variants_of": "B3", "details": "with reep6_human REEP6, Q96HR9"}
{"variant": "A111G", "effect of a mutation on the interaction": "disrupting interaction strength"}
{"variant": "G112S", "effect of a mutation on the interaction": "disrupting interaction strength"}
{"variant": "I92V", "effect of a mutation on the interaction": "with no effect"}
{"variants_of": "B3", "details": "with hgs_human HGS"}
{"variant": "A111G", "effect of a mutation on the interaction": "disrupting interaction strength"}
{"variant": "G112S", "effect of a mutation on the interaction": "disrupting interaction strength"}
{"variant": "I92V", "effect of a mutation on the interaction": "with no effect"}
{"variants_of": "B3", "details": "with OPTN"}
{"variant": "A111G", "effect of a mutation on the interaction": "disrupting interaction strength"}
{"variant": "G112S", "effect of a mutation on the interaction": "disrupting interaction strength"}
{"variant": "I92V", "effect of a mutation on the interaction": "with no effect"}
{"variants_of": "B4", "details": "with nlk_human NLK"}
{"variant": "R432C", "effect of a mutation on the interaction": "disrupting interaction strength"}
{"variant": "P451L", "effect of a mutation on the interaction": "disrupting interaction strength"}
{"variant": "A9D", "effect of a mutation on the interaction": "disrupting interaction strength"}
{"variant": "P248L", "effect of a mutation on the interaction": "with no effect"}
